According to patent US20120207760A1 (THERACLONE SCIENCES, published 2012):

B1: TCN-527 (5086_C06) (antibody, V domains shown)
VH: QVQLQESGPGLVKPSETLSLNCAVSGGSISNYYWSWIRQPPGKGLEWIGYISYNGRPKYNPSLTSRVTISVDTSKDQFSLELRSVTAADTALYYCARETRFGELLSPYDAFEIWGQGTMVTVSS
VL: DIQMTQSPSSLSASVGDRVTMTCRASQNIRSYLNWYQQRPGTAPKLLIYAASTLHSGVPSRFSGGGSGTDFTLTINNLQPEDFASYYCQQSYDNPQTFGQGTKVEIK
B2: TCN-542 (5079_A16) (antibody, V domains shown)
VH: QVQLQESGPGLVKPSQTLSLTCTVSGGSISSGNYYWNWVRQHPGKGLEWIGYIYYRGSTFYNPSLKSRVTISIDTSKNQFSLRLSSVTAADTAVYYCAKDTRSSLDNYQYGMDVWGQGTTVTVSS
VL: QTVVTQEPSLTVSPGGTVTLTCASSTGAVTSSYFPNWFQQKPGQAPRPLIYSTTIRHSWTPARFSGSLLGGKAALTLSGVQPEDEADYYCLLYSGGDPVAFGGGTKLTVL
B3: TCN-528 (5087_P17) (antibody, V domains shown)
VH: QVQLVQSGSEVKKPGASVKVSCKASGYTFTNYDINWIRQAPGQGLEWMGWINPNSGTTGSAQRFQGRVTITVDTSITTVYMELSSLRSDDTAIYYCARGRELLRLQHFLTDSQSERRDCFDPWGQGTLVTVSS
VL: DIQMTQSPSSLSASVGDRVTITCRANQDIGIYLNWYQQNPGKVPKLLLHGASSLQGGVPSRFSASGSGTDFTLTIHSLQPEDLATYYCQQSRRLPYTFGQGTRVELK
B4: TCN-529 (5297_H01) (antibody, V domains shown)
VH: QITLRESGPTLVKPTQTLTLTCTFSGFSLSTNGVNVGWIRQPPGKALEWLALIYWDDDKRYSPSLKRRLTITKDTSKNQVVLTLTNMDPVDTATYYCAHRPDFYGDFEYWGPGTLVTVSS
VL: QSALTQPASVSGSPGQSITISCTGSSSDIGGYNYVSWYQQHPGKAPKLMIYDVNNRPSGVSNRFSGSKSGNTASLTISGLQTDDEADYYCGSYTGSPHYVFGTGTKVTVL
B5: TCN-530 (5248_H10a) (antibody, V domains shown)
VH: QVQLVQSGAEVRKPGSSVKVSCKASGGPFMSYAIGWVRQAPGQGLEWMGGINPVFGRPHYAQKFQGRVTIATDDSTKTSYMELSSLTSEDTGMYYCASRYSRSSPGTFESWGQGTLVTVSS
VL: EIVMTQFPATLSVSPGERVTLSCRASQSVSNNLAWYQQKPGQPPRLLIYDASTRATGVPAKFSGTGSGTEFTLSISSLQSEDFAVYYCQQYHNWPPSYSFGLGTKLEIK
B6: TCN-531 (5091_H13) (antibody, V domains shown)
VH: EVQLVESGGDLVQPGRSLKLSCTGSGFTFGDYGVTWVRQAPGKGLEWVGFIRTRPWGGTADTAASVKGRFTISRDDSKSLAYLQMNSLKTEDTAVYYCCRDAPPNVEVASMTNWYFDLWGRGTLVTVSS
VL: DIQLTQSPSSLSASVGDRVTITCRASQGILNCLAWYQQKPGKVPNLLMYAASTLQSGVPSRFSGSGFGTDFTLTISSLQPEDVATYYCQTYGGVSTFGGGTKVEIR
B7: TCN-535 (5246_P19) (antibody, V domains shown)
VH: QVQLVQSGSEVKKPGTSVKVSCTASGSVFTNYGISWVRQAPGQGLEWMGGIIPLFGAAKYAQKFQGRVTITADESTKTVYMELSRLTSKDTAIYFCAKAPRVYEYYFDQWGQGTPVTVSS
VL: EIVLTQSPGTLSLSPGERATLSCRASQSVSSSQLAWYQQKPGQAPRLIIYGASTRATGIPDRFSGSGSGTDFTLTIGRLEPEDFAVFFCQQYSTSPPTFGQGTKVDFK
B8: TCN-533 (5256_A17) (antibody, V domains shown)
VH: QVQLVQSGADVKKPGSSVTVSCKASGGSFSNYGINWVRQAPGQGLEWMGGIIPLINAPNYAPKFQGRVTITADMFSNIVSLQLTSLRTDDTAVYYCARRKMTTAIDYWGQGTLVTVSS
VL: QPVLSQPPSASASLGASVTLTCTLSSGFDNYQVAWYQQRPGKGPRFVMRVGNGGNVASKGDGIPDRFSVSGSGLNRYLTIKNIQEDDESDYYCGADHGSGNNFVSPYVFGGGTKLTVL
B9: TCN-534 (5249_B02) (antibody, V domains shown)
VH: QVQLVQSGAEVKKPGSSVKVSCRESGGTFNGYTITWVRQAPGQGLEWMGGIIPMMGTVNYAQKLQGRVTITTDYFTKTAYMDLNNLRSEDTAMYYCVKIRYTGQQLLWGQGTLVTVSS
VL: DIQMTQSPSTLSASIGDRVTITCRASQSIASWLAWYQQKPGKAPKLLIYEAVNLESGVPSRFSGSGSGTDFTLTISSLQPDDFATYFCQHYGTISQTFGGGTKVEIK
B10: TCN-526 (5084_C17) (antibody, V domains shown)
VH: EVLMVESGGGLVQPGGSVRLSCVASGFSFSSHWMTWVRQAPGKGLEWVANIEDDGGDKYYVDSVKGRFIISRDNAKNSVYLQMNSLRAEDTAVYFCARGSGSSDRSDYDPHYYYYLDVWGKGATVTVSS
VL: DIQLTQSPSSLSASVGDRVTITCRASQSISRYLNWYQQKPGKAPKLLLFAASTLLDGVPSRFSGSGSGTDFTLTISSLQPEDFATYYCQRNHSPSWTFGQGTRVEIK
B11: TCN-522 (3212_I12) (antibody, V domains shown)
VH: QVQLQQWGAGLLKPSETLSLTCTVSGGSLTDYSWNWIRQPPGKGLEWIGDTLHNGYTNYNPSLRGRVSISIDTSKNQVSLRLTSVTAADTALYYCARGSGGYGGFDYFGKLRTWDFWGQGTLVTVSS
VL: DIQLTQSPSSLSASVGDRVTITCRASQGIRNDLGWYQQKPGNAPKRLIFGASSLQSGVPSRFSGSGSGTEFTLTISSLQPEDFATYYCLQHNSYPYTFGQGTKLEIK
B12: TCN-563 (5237_B21) (antibody, V domains shown)
VH: QVQLAQSGAEVKRPGSSVKVSCTASGGIFRKNAISWVRQAPGQGLEWMGGIIAVFNTANYAQKFQGRVKITADESGNTAYMELSSLRSDDTAVYYCASHPKYFYGSGSYPDFWGQGTLVTVSS
VL: QSALTQPRSVSGSPGQSVTISCTGSSSDVGASNSVSWYQQHPGKAPKLVIYDVTERPSGVPHRFSGSKSGNTASLTVSGLQPEDEADYFCCAYGGKYLVVFGGGTKVTVL
B13: TCN-536 (5095_N01) (antibody, V domains shown)
VH: QVQLQQWGAGLLKPSETLSLTCAVYGGSFSVSGYYWSWIRQPPGRGLEWIGEISHGGSTNYNPSLKSRVTISVDTTKNQFSLRLSSVTAADTAVYYCARGTDPDTEVYCRVGNCAAFDYWGQGSLVTVSS
VL: EIILAQSPGTLSLSPGERATLSCRASQFVSTRSLAWYQQRPGQAPRLLIYGASSRATGIPDRFSGSGSGTDFTLTISRLEPEDFAVYYCQHYGYSPRYAFGQGSKVEIK
B14: TCN-546 (5089_L08) (antibody, V domains shown)
VH: QVQLQQWGAGLLKPSETLSLTCGVYGGSLSDYYWSWIRQPPGKGLEWIGEINHSGGTNYNPSLKRRVTISVDTSKKQFSLKMNSVTAADTAVYYCARGTDPDTEVYCRAGNCAAFDFWGQGTLVTVSS
VL: EIVLTQSPGTLSLSPGERATLSCRASHFVIGRAVAWYQQKPGQAPRLLIYGASSRATGIPDRFSGSGSGTDFTLTISRLETEDFAVFYCQHYGSSPRYAFGQGTKLEIK
B15: TCN-532 (5262_H18) (antibody, V domains shown)
VH: QVQLQESGPGLVKPSETLSLTCTVSGGSVSSETYYWSWIRQPPGKGLEWIGYIYYIGNTDYRPSLKSRVTISLDTSKNQFSLKLSSVTAADTAVYYCARGAYYDSSGYPAFYIWGQGTMVTVSS
VL: QSVLTQPPSVSGAPGQRVTISCTGSSSNIGSDYDVHWYKQLPGTAPKLLIFGNSNRPSGVPDRFSGSKSGTSASLAITGLQAEDEADYYCQSYDSSLSGFHVFGSGTKVTVL

Legend:
[1] = molecular target: T1, hemagglutinin (HA) of influenza A/Japan/305/57 H2N2 (Influenza A virus A/Japan/305/1957 …, UniProt P03451 16-562); assay: ELISA, inactivated whole virions coated; transfection supernatant set 2
[2] = molecular target: T2, hemagglutinin (HA) of influenza A/Solomon Islands/3/06 H1N1 (Influenza A virus A/Solomon …); assay: as above
[3] = molecular target: T2, hemagglutinin (HA) of influenza …; assay: cell-based or functional assay
[4] = molecular target: hemagglutinin (HA) on live influenza A virus A/California/4/09 H1N1 (Influenza A virus A/California/04/2009 …); assay: cell-based or functional assay
[5] = molecular target: hemagglutinin (HA) on live influenza A virus A/Solomon Islands/3/06 H1N1 (Influenza A virus A/Solomon …); assay: cell-based or functional assay
[6] = molecular target: hemagglutinin (HA) on live influenza A virus A/Wisconsin/67/05 H3N2 (Influenza A virus A/Wisconsin/67/2005 …); assay: cell-based or functional assay
[7] = molecular target: T1, hemagglutinin (HA) of influenza …; assay: ELISA, inactivated whole virions coated; transfection supernatant set 3
[8] = molecular target: T2, hemagglutinin (HA) of influenza …; assay: as above
[9] = molecular target: T1, hemagglutinin (HA) of influenza …; assay: ELISA, inactivated whole virions coated; transfection supernatant set 4
[10] = molecular target: T2, hemagglutinin (HA) of influenza …; assay: as above

| Binder | OD450 [1] [OD450] | OD450 [2] [OD450] | % Neutralization [3] [%] | OD450 [7] [OD450] | OD450 [8] [OD450] | other results |
| --- | --- | --- | --- | --- | --- | --- |
| B1 | 3.63 | 3.69 | 12 | – | – | – |
| B2 | – | – | – | – | – | % Neutralization [4]: 15%; % Neutralization [5]: 99%; % Neutralization [6]: 8% |
| B3 | 3.64 | 3.66 | 0 | – | – | – |
| B4 | – | – | 0 | 0.1 | 0.16 | – |
| B5 | – | – | 64 | 3.43 | 3.62 | – |
| B6 | – | – | 65 | 0.09 | 0.1 | – |
| B7 | – | – | 82 | – | – | OD450 [9]: 2.45 OD450; OD450 [10]: 3.52 OD450 |
| B8 | – | – | 56 | 3.65 | 3.61 | – |
| B9 | – | – | 86 | – | – | OD450 [9]: 2.45 OD450; OD450 [10]: 3.5 OD450 |
| B10 | 0.07 | 0.08 | 0 | – | – | – |
| B11 | 0.61 | 3.48 | 33 | – | – | – |
| B12 | 0.84 | 3.6 | 78 | – | – | – |
| B13 | – | – | 75 | – | – | OD450 [9]: 0.06 OD450; OD450 [10]: 3.52 OD450 |
| B14 | – | – | – | – | – | % Neutralization [4]: 0%; % Neutralization [5]: 98%; % Neutralization [6]: 100% |
| B15 | – | – | 11 | 0.08 | 0.13 | – |
